From publication PMC12394070

Target: HA–TDP-43–FKBP

- solubility assay: share of TDP-43 in the insoluble fraction after heat stress with rapamycin (80% without rapamycin) (% of TDP-43 in the insoluble fraction): 20
Substance: FRB–PML–Myc
